Data reported in US11407825B2, “NaPi2b-targeted polymer antibody-drug conjugates and methods of use thereof” (Mersana Therapeutics, Inc., priority 2018, dated 2022).

System: NaPi2b expressing tumors
Test: Phase 1b study of XMT-1536: duration on study and reason for discontinuation
Format: in vivo, human
Source text: The study presented herein is an open label, multi-center Phase 1b study of XMT-1536 administered as an intravenous infusion once every three or four weeks. The dose escalation (DES) part of the study will establish the maximum tolerated dose (MTD) or recommended Phase 2 dose (RP2D) for XMT-1536 in patients with a number of tumor types likely to express NaPi2b, with a focus on patients with platinum-resistant ovarian cancer and non-squamous non-small cell lung cancer (NSCLC). […] The RP2D may differ from the MTD and may take into account tolerability, pharmacokinetic and pharmacodynamic measures, and efficacy of XMT-1536 based on RECIST 1.1. After the first cycle, patients may continue to receive XMT-1536 until disease progression provided the drug is well-tolerated and patients continue to derive clinical benefit in the opinion of the Investigator. The DES segment of the study utilized an accelerated titration design. The first 3-week cycle of treatment constitutes the dose limiting toxicity (DLT) evaluation period. For the first two dose levels, a minimum of 1 patient was treated at each dose level. If this patient experiences a treatment-emergent adverse event of Grade 2 or higher, 2 additional patients will be added at this dose level, and the study will subsequently follow a 3+3 design, as described below. […] Starting with Dose Level 3, the study will follow a standard 3+3 design, with 3 patients enrolled initially at each dose level. […] However, in the event of 1 DLT, 3 additional patients will be enrolled at the same dose level. Any dose level with 2 or more DLTs will be considered to exceed the MTD and subsequent patients will be enrolled at lower dose level(s). After the first cycle, patients may continue to receive XMT-1536 until disease progression if the drug is well-tolerated and patients continue to derive clinical benefit in the opinion of the Investigator.
After an August 2018 protocol amendment, each cycle will be 4-week (28 day) dose cycle. The first two, 4-week cycles of treatment (56 days) constitutes the dose limiting toxicity (DLT) evaluation period. Beginning with this amendment, up to 10 patients will be enrolled for evaluation at 20.0 mg/m^2 under the new 4-week cycle dose regimen. If that dose is cleared by the SRC, subsequent dose groups will follow a modified 3+3 design. Three patients will be enrolled initially and if toxicity issues arise, the SRC will review all pertinent data and may decide to add more patients to fully evaluate a dose in question and/or lower the dose. […] The observation period for DLTs is 56 days, between Day 1 through the end of Cycle 2 which includes the pre-dose assessments before receiving the Cycle 3 dose. A maximum of ten patients will be enrolled per dose level prior to the SRM. that will be conducted no later than 5 days after at least the sixth patient dosed in each level has completed Cycle 2, Day 28 evaluations. The data available for the patients dosed in all prior will be factored into the data review for each applicable dose escalation SRM. Any dose level with 2 or more DLTs occurring in 6 or fewer treated patients will be considered to exceed the MTD and subsequent patients will be enrolled at lower dose level(s). After the second cycle, patients may continue to receive XMT-1536 until disease progression if the drug is well-tolerated and patients continue to derive clinical benefit in the opinion of the Investigator. After completion of DES, the EXP segment of the study will be opened.
Treatment will continue indefinitely unless one of the following occurs: disease progression, inter-current illness that prevents further administration of treatment, unacceptable adverse events or pregnancy, patient non-compliance with the protocol, patient withdraws consent for participation from the study, and/or general or specific changes in the patient's condition render the patient unacceptable for further treatment in the judgment of the Investigator.

[1] = doses of 20 mg/m^2 and higher (n=18)

B1: XMT-1536: about 10-15 molecules of auristatin F-hydroxypropyl amide conjugated to a cysteine moiety of NaPi2b monoclonal antibody XMT-1535 via a PHF scaffold (conjugate, chains of the INN, looked up)
VH: QVQLVQSGAEVVKPGASVKMSCKASGYTFTGYNIHWVKQAPGQGLEWIGAIYPGNGDTSYKQKFRGRATLTADTSTSTVYMELSSLRSEDSAVYYCARGETARATFAYWGQGTLVTVSS
VL: DIQMTQSPSSLSASVGDRVTITCSASQDIGNFLNWYQQKPGKTVKVLIYYTSSLYSGVPSRFSGSGSGTDYTLTISSLQPEDFATYYCQQYSKLPLTFGQGTKLELK
modifications: auristatin F-hydroxypropyl amide via PHF scaffold
notes: about 10-15 molecules of auristatin F-hydroxypropyl amide conjugated to a cysteine moiety of NaPi2b monoclonal antibody XMT-1535 via a PHF scaffold
- Treatment duration >16 weeks (All NSCLC, N 3): 33%
- Treatment duration >16 weeks, patients (All NSCLC, N 3): 1
- Treatment duration >16 weeks (All Ovarian Cancer (OC), N 19): 42%
- Treatment duration >16 weeks, patients (All Ovarian Cancer (OC), N 19): 8
- discontinued for Progressive Disease per RECIST, patients (DL1 3 mg/m^2, n = 1): 1
- discontinued for Progressive Disease per RECIST, patients (DL2 6 mg/m^2, n = 1): 1
- discontinued for Clinical Progression, patients (DL3 12 mg/m^2, n = 7): 4
- discontinued for Progressive Disease per RECIST, patients (DL3 12 mg/m^2, n = 7): 3
- discontinued for Clinical Progression, patients (DL4 & 4A 20 mg/m^2, n = 13): 2
- discontinued for Progressive Disease per RECIST, patients (DL4 & 4A 20 mg/m^2, n = 13): 7
- discontinued for Clinical Progression, patients (DL5 & 5A 30 mg/m^2, n = 11): 3
- discontinued for Progressive Disease per RECIST, patients (DL5 & 5A 30 mg/m^2, n = 11): 6
- Treatment duration >16 weeks (NSCLC ≥ 20 mg/m^2, N 2): 50%
- Treatment duration >16 weeks, patients (NSCLC ≥ 20 mg/m^2, N 2): 1
- Treatment duration >16 weeks (OC + NSCLC ≥ 20 mg/m^2, N 18): 56%
- Treatment duration >16 weeks, patients (OC + NSCLC ≥ 20 mg/m^2, N 18): 10
- Treatment duration >16 weeks (OC ≥ 20 mg/m^2, N 16): 57%
- Treatment duration >16 weeks, patients (OC ≥ 20 mg/m^2, N 16): 9
- Treatment duration >16 weeks (OC ≥ 30 mg/m^2, N 7): 43%
- Treatment duration >16 weeks, patients (OC ≥ 30 mg/m^2, N 7): 3
- discontinued for Clinical Progression (Total, n = 34): (26%)
- discontinued for Clinical Progression, patients (Total, n = 34): 9
- discontinued for Progressive Disease per RECIST (Total, n = 34): (53%)
- discontinued for Progressive Disease per RECIST, patients (Total, n = 34): 18
- treatment duration of >16 weeks [1]: 50%
- treatment duration of >16 weeks, patients [1]: 9
